Results reported in the RNAGym collection of RNA variant scans (doi:10.1073/pnas.2313332121).

B1: TPR t1 (parent)
chain: GACCAAUCUGCCCUCAGAGCUCGAGAACAUCUUCGGAUGCAGAGGAGGCAGGCUUCGGUGGCGCGAUAGCGCCAACGUCCUCAACCUCCAAUGCAUCCCACCACAUGAUGAUGCCUGAAGAGCCUUGGUUUUUUG

Variants of: B1
Assay: polymerase ribozyme fitness, log enrichment relative to wild type (log ratio); higher = more active; in vitro selection for triplet polymerase activity
In short: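 Fitness compares each genotype's enrichment to that of the wild type on a logarithmic scale, averaging replicates with inverse-variance weights. The logarithm is base 2. Enrichment came from Illumina sequencing of input and output libraries after one triplicate round of in vitro selection, which included frozen incubation at −7 °C, of PCR-built, transcribed mutant libraries of each subunit of a heterodimeric triplet polymerase ribozyme. Only genotypes with ≥10 input reads and ≥1 read per output were kept.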

| Variant | polymerase ribozyme fitness (log ratio) |
| --- | --- |
| C79A C82U C94A G113A G128U | -5.6 |
| A91G C101U G110A | -2.85 |
| C53A U106G A121U | 0.877 |
| C11G G60A C70U | -0.917 |
| A26G A37U C123U U133A | -2.78 |
| G17A A46C G63U A74U C89G C102U A105U | -7.26 |
| G39A G51U A83G A95C | -3.53 |
| G48U G61A C89A A119U | -2.48 |
| G47A U125G | -2.16 |
| C62U C104G | -7 |
| G71U A100U | -1.2 |
| C62U U133G | -1.15 |
| A50G C62U G69U C80A | -3.77 |
| C70G U130G | -4.08 |
| C8A A29U G63A C88U A91U C123U | -3.81 |
| C11U G48A G61A C86G | -1.75 |
| G113C G122A | -3.11 |
| C62U U129C | 0.0239 |
| A50U U112A C124U G128C | -4 |
| C49G G93A | -1.26 |
| C13A A103U A108U G117C U129A | -6.73 |
| A119U A121U | 1.77 |
| G61A C89G C101G A121G | -0.932 |
| G71A A91C C114U U133C | -2.15 |

| Variant | polymerase ribozyme fitness (log ratio) |
| --- | --- |
| C85U C124G | 0.923 |
| A43U A75U U126G | -3.5 |
| G63A U78C A83G C88G | -3 |
| G36C A100U A111G | -1.04 |
| C40A C89G U106G C123U | -5.55 |
| A6C G113A | -1.23 |
| C3G G60C C86A | -2.81 |
| C13G C56G G69C C89A G117U | -6.43 |
| C11U C13U G44C C86G U116C U132C | -1.99 |
| U30C C70U | -2.92 |
| G42C C80U U92G | -3.41 |
| U14A U21A U30G G58C U112C A118C | -4.31 |
| G61A U133A | -0.418 |
| C22U A105U | -6.8 |
| G45C G60C C79A | -1.42 |
| C3U U55C C89U C115U | -3.75 |
| G69U G128A | -1.19 |
| G51A C86A | -2.78 |
| G48C G71A | -1.65 |
| G71C G110A | -2.2 |
| C12U U96G G128C | -2.88 |
| C11A G52A A68G C101U G117C | -7.38 |
| G110A G122A C123U | -2.1 |
| C12A A84U U130A | -1.77 |

| Variant | polymerase ribozyme fitness (log ratio) |
| --- | --- |
| U78C A111G C124A | 1.04 |
| C8A A84G | 0.231 |
| C49U A66C C86G C88U U92A C114U | -5.32 |
| C13U C22G C49U G71C C102U G122A | -5.74 |
| C53A | 0.0557 |
| C28U G39A | -2.12 |
| G71U A74U A95U U112G | -3.05 |
| G48C G63A G113U C123A | -5.64 |
| A27C C49U | -4.08 |
| C20U G44U | -2.46 |
| C56A C76A C88A C115U | -3.94 |
| A6C C73G G93U G128U | -5.16 |
| G45A U106A A111G | -1.55 |
| A5C G45U C62U | -1.97 |
| C15A G39U C40U C64U G93C | -4.09 |
| G23A C73A A83G G120U | -6.38 |
| U96C U106A | -1.43 |
| G42A C80U | -2.64 |
| A2U G10U A100C | -4.35 |
| C11U G60C A84U | -0.912 |
| G63A G69U C79U | -0.72 |
| C11U A74C A111U | -3.83 |
| C73G A105U | -2.27 |
| C49A G69C A83C A84U | -4.35 |

| Variant | polymerase ribozyme fitness (log ratio) |
| --- | --- |
| C3U A91U G93C G113C G135U | -3.84 |
| C22A C53A G110C U131A | -5.4 |
| C70U A118U C123A U130C | -0.647 |
| A16C C64G G69U C94G G110U | -4.25 |
| A37U A105C | -3.01 |
| C8U A29G U112A | -0.107 |
| G69A G117A | -3.78 |
| A37U U55G | -0.465 |
| C11G A50C | -0.589 |
| U87A U106A G113A | -2.17 |
| A41U G93C | -2.07 |
| C40U A50C C76G G77C C80U U131G | -4.6 |
| A18C G48A C94G | -3.96 |
| U9C C11U G17A | -3.22 |
| C12U C13U C20A G47C C86U | -2.7 |
| C28U C64U G93U | -3.83 |
| C12U A46U C49U G63C A90C | -4.26 |
| G44A C72U G93U C97U U131A | -2.85 |
| C15A G61A A83U G117C | -5.31 |
| C49A C53G C73U A74G A100U | -2.75 |
| U21G G61C U87A U133G G135U | -3.09 |
| C79U G117C | -3.9 |
| C8U C12A G19U U59C G120A | -1.69 |
| G107C G110A G117A U130C | -6.86 |

| Variant | polymerase ribozyme fitness (log ratio) |
| --- | --- |
| C11A C12U G71U A84C | -1.73 |
| C4A C15U G51A C82G C123U | -5.31 |
| C88G U131C | -0.249 |
| C64U A111U | -3.24 |
| C15U A18C | -3.52 |
| A37G A83C C88G U130G | -4.95 |
| G17A C70U | -3.03 |
| A90U G93U | -1.11 |
| C8A U38G A43C G61C C123A | -4.73 |
| C12A A26G | -1.73 |
| C56U G128U | -1.65 |
| C34U C70U | -5.65 |
| C56G G69A A119U | -3.54 |
| C49A C82U G93C C99U G122U | -3.82 |
| C11U C49A | -1.28 |
| C76A G113C | -3.53 |
| C8G C98G | -5.23 |
| A43C G44C | -1.05 |
| A37C G71U C101A G127C | -2.36 |
| A74G U106A U125A | -0.353 |
| G19C C72A C124A U129G | -0.719 |
| C123G U131A | 0.367 |
| A111G C114G C123U | -6.41 |
| C28U G39C C56G C104U | -5.32 |

| Variant | polymerase ribozyme fitness (log ratio) |
| --- | --- |
| G57A U78C U87C C104U G113A | -1.61 |
| G36A G71A | -1.64 |
| C8A C15U A46U A118G | -1.21 |
| C40G C53A C123G | 0.48 |
| C3U A43C C73A U87G | -2.3 |
| G42C G61A A121C U133G | 0.579 |
| C13G C20U | -2.34 |
| G10A G45A A95C C102A | -2.76 |
| G69A C89G | -5.32 |
| C8G G10A C20U A24U C49U G61A C80G G120U | -7.85 |
| C15G C73A | -2.02 |
| C4U C49U G52A | -3.12 |
| G60U C80U C123A | -1.11 |
| A111U C123U G127C | -4.76 |
| C8G G10U G42A G45C | -3.03 |
| C4U G48C G61U C98U U112C | -0.785 |
| A6U U54A | -0.507 |
| A27C C124A | -0.901 |
| G45U C72G A91C | -2.3 |
| C28U C49A C72A C114G | -5.7 |
| G69U G117A | -0.296 |
| G63U U87A G122U | -1.97 |
| G61A U78C C85U U96C C101U U109G | -5.66 |
| G47A G48C G52U C79U | -3.46 |

| Variant | polymerase ribozyme fitness (log ratio) |
| --- | --- |
| C76A G120U | -0.741 |
| A46C U109C | -6.47 |
| U14A G39A U55A U78C G117C | -7.2 |
| C12G C20U C72U G117U | -2.78 |
| G47A G51C C98A C102U C115U G127U | -7.84 |
| C11U C124A | 1.7 |
| U78C U109A G128A | -4.56 |
| C11G C73A C82U | -0.161 |
| C97U C98A | -4.41 |
| C12A C53U C56G G135A | -2.18 |
| A2G C12G U21A G71U U78A A121U | 0.758 |
| G48C C56U G77A G110A | -2.29 |
| C56U C62U C101U G122A | -2.35 |
| G23U G45A C56U C98A U112G | -6.47 |
| G42A C53G | -2.5 |
| C72U A121C U134G | 1.71 |
| G10A C56U U96C | -0.627 |
| C72A G93A | -0.667 |
| C3U G10U A26U U55C G69U U112C | -3.58 |
| G60U C104U | 0.494 |
| G10U G57A G60A | -0.571 |
| C72A U92A A119G G127C | -1.04 |
| A41U G77U C88G A111U | -6.76 |
